# Positions count from the first letter of the chain named.
# B1: Y1.10 (scFv, V domains shown)
# VH: QVQLQQSGAEVKKPGSSVKVSCKASGGTFGNWTISWVRQAPGQGLEWMGGIGPRQGEATYAQKFQGRVTITTDESTSTAYMELSSLRSEDTAVYYCARETWYTSGGMDVWGQGTTVTVSS
# VL: SYELTQPPSVSVAPGKTARITCGGNNIGRKSVHWYQQKPGQAPVLVVYDDSDRPSGIPERFSGSNSGNTATLTISRVEAGDEADYYCQVYDLWSSDYVFGTGTKVEIK
# B2: Y2.1 (scFv, V domains shown)
# VH: B1 VH with T33S, G52V, Q55D
# VL: B1 VL
# B3: Y4.1 (scFv, V domains shown)
# VH: B1 VH with G52A, R54T, Q55R
# VL: B1 VL
# B4: Y4.2 (D27LEY), scFv (scFv, V domains shown)
# VH: B1 VH with T33S, G52A, R54G, Q55R
# VL: B1 VL
# B5: Y6.8 (scFv, V domains shown)
# VH: B1 VH with G52A, R54D, Q55R
# VL: B1 VL
# B6: Y7.10 (scFv, V domains shown)
# VH: B1 VH with G52I, R54S, Q55R
# VL: B1 VL
# B7: Y8.10 (scFv, V domains shown)
# VH: B1 VH with T33S, G52A, R54G
# VL: B1 VL
# B8: Y9.6 (scFv, V domains shown)
# VH: B1 VH with G52I, R54T, Q55I
# VL: B1 VL
# B9: Y9.7 (scFv, V domains shown)
# VH: B1 VH with T33S, G52N, R54S, Q55I
# VL: B1 VL
# B10: D27LE, scFv (scFv, V domains shown)
# VH: B1 VH with T33S, G52D, R54S, Q55R
# VL: B1 VL
# B11: D27LEY (antibody, V domains shown)
# VH: B1 VH with T33S, G52A, R54G, Q55R
# VL: B1 VL
# B12: D27LE (antibody, V domains shown)
# VH: B1 VH with T33S, G52D, R54S, Q55R
# VL: B1 VL
# Target: T1, N501Y mutant RBD (SARS-CoV-2 Alpha (B.1.1.7), RBD N501Y, N501Y)
# Assay: BLI
row,Binder,Kd [nM]
1,B1,842
2,B2,30.8
3,B3,102
4,B4,9.4
5,B5,93.5
6,B6,41.2
7,B7,21.3
8,B8,263
9,B9,79.2
10,B10,276

# Target: T1, N501Y mutant RBD
# Assay: BLI
# Remark: another data set of the same source
row,Binder,Kd [nM]
1,B4,4.87
2,B11,< 0.001
3,B12,0.54

# Target: RBD of the Delta variant (SARS-CoV-2, Delta (B.1.617.2), L452R | T478K)
# Assay: BLI
row,Binder,Kd [nM]
1,B11,0.32

# Reference: publication PMC8765073 (mAbs, 2022)
